Reference: article PMC5457438
Numbering of substitutions follows the chain as printed.

Key:
[1] = test system: T1, MaeR full length (MaeRFL) (Lacticaseibacillus (Lactobacillus) casei BL23), ORF:6e0afda8; test: EMSA; details: EMSA: 15 ul of 2.5 mM Tris-HCl pH 7.5, 100 mM NaCl, 25 mM MgCl2, 0.25 mM EDTA, 0.25 mM DTT, 10% glycerol, 1.5 ug salmon sperm DNA, 100 ng DNA, 62-375 ng …
T1 sequence: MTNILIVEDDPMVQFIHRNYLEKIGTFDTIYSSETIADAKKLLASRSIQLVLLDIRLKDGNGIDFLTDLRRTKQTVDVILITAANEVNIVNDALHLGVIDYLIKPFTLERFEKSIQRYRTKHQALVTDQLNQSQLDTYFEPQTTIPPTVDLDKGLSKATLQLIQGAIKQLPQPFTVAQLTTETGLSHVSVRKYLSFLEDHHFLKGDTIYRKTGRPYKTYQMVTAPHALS

[2] = test system: T2, MaeR D54A D54A (Lacticaseibacillus (Lactobacillus) casei BL23), ORF:6e0afda8; test: EMSA; details: EMSA: 15 ul of 2.5 mM Tris-HCl pH 7.5, 100 mM NaCl, 25 mM MgCl2, 0.25 mM EDTA, 0.25 mM DTT, 10% glycerol, 1.5 ug salmon sperm DNA, 100 ng DNA, 62-375 ng …
T2 sequence: T1 sequence with D54A

[3] = test system: T3, MaeR D54N D54N (Lacticaseibacillus (Lactobacillus) casei BL23), ORF:6e0afda8; test: EMSA; details: EMSA: 15 ul of 2.5 mM Tris-HCl pH 7.5, 100 mM NaCl, 25 mM MgCl2, 0.25 mM EDTA, 0.25 mM DTT, 10% glycerol, 1.5 ug salmon sperm DNA, 100 ng DNA, 62-375 ng …
T3 sequence: T1 sequence with D54N

[4] = biological target: recombinant complete cytoplasmic portion of MaeK (MaeKC) (Lactobacillus casei); test: SEC; gel filtration chromatography of MaeKC (Superdex200 16/60); single peak

Substance	binding [1]	binding [2]	binding [3]	stoichiometry N [4]
CGTTGATTTGTTGGGTGTAACCGTCTTGTTCTCCATGTTTCCTTACCCCCAATCTTTTGTTACTTACAGCATATTGTAAGCGCTTCATCAGGGGAAGATTATTTAACTTATTAAACCATAAACCCATTTATTTAAGCGATTGTTTTACTATTCACAAGATGGTTTCTCTACTGAACAGGAGTATGATCATGAAAATAAAAGGATGGCGGCTATGGGGCT (double strand) [mae promoter (maeP-maeK intergenic region, 219 bp)]	binds	no binding	binds	–
recombinant complete cytoplasmic portion of MaeK (MaeKC) (domain or fragment)	–	–	–	2
